Assay [1] addresses FTM-NN protein (membrane anchorless form of the Long fusion protein, 70 kDa) (human respiratory syncytial virus, …, UniProt P12568 26-524). Description: binding ELISA, periplasmic extract on immobilised antigen. (In general: ELISA stands for enzyme-linked immunosorbent assay.)
Assay [2] concerns the target authentic influenza antigen of A/PR/8/34 (ATCC VR-1469), H1N1 (influenza A virus A/PR/8/34 (H1N1), UniProt P03452 18-565). Description: ELISA on coated authentic influenza antigen.
Assay [3] has as its target F protein of RSV Long (RSV LONG M-2) (human respiratory syncytial virus, …, UniProt P12568 26-574). The experiment in a line: cell-based or functional assay.
The target of assay [4] is F protein of RSV A-2 (human respiratory syncytial virus, …, UniProt P03420 26-574). Description: cell-based or functional assay.
Assay [5] deals with T1, FTM-NN protein (membrane anchorless form of the Long fusion protein of hRSV, 70 kDa) (human respiratory syncytial virus, …, UniProt P12568 26-524). Description: competition ELISA, periplasmic extract diluted 1:100, competitor 101F Fab.
For assay [6], the target named is T1, FTM-NN protein (membrane anchorless …). Description: competition ELISA, periplasmic extract diluted 1:300, competitor 101F Fab.
Assay [7] has the same target. The experiment in a line: competition ELISA, periplasmic extract diluted 1:1000, competitor 101F Fab.
For assay [8] the target is unchanged. The experiment in a line: ELISA, periplasmic extract on immobilised F protein; signal as fold over blank.
Assay [9] has as its target T2, FTM-NN (membrane anchorless form of the Long fusion protein, 70 kDa) (human respiratory syncytial virus, …, UniProt P12568 26-524).
T2 construct: domain: membrane anchorless form of the fusion protein
Description: SPR (Biacore), Ftm-NN protein immobilized on chip, Nanobody as analyte.

B1: PMP1E5 (VHH)
VHH: EVQLVESGGGLVQAGGSLRLSCEASGRTFSPIAMGWFRQAPGKEREFVAVVTRWSGARTVYADSVKGRFTISRDNAENTVYLQMNSLKPEDTAVYTCAADSTNRNSGAIYYTWAYDYWGQGTQVTVSS
As to B1, the “Binding RSV-A, Fold blanc” value in assay [1] is 3.4 fold over blank.

B2: PMP1G3 (VHH)
VHH: EVQLVESGGGLVQAGGSLRLSCEASGRTYSRYGMGWFRQAPGKEREFVAAVSRLSGPRTVYADSVKGRFTISRDNAENTVYLQMNSLKPEDTAVYTCAAELTNRNSGAYYYAWAYDYWGQGTQVTVSS
For the molecule B2, in assay [1], the “Binding RSV-A, Fold blanc” value worked out at 3.4 fold over blank.

B3: PMP20B2 (VHH)
VHH: EVQLVESGGGLVQAGGSLRLSCEASGRTFSSYDMGWFRQAPGKEREFVAAVTRWSGARGVYADSVKGRFTISRDNAENTVHLQMNSLKPEDTAVYTCAADSTNRNSGAVYYTWAYDYWGQGTQVTVSS
On to B3, for which the “Binding RSV-A, Fold blanc” value in [1] stood at 3 fold over blank.

B4: IV144 (VHH)
VHH: QVQLQQSGGGLVQAGGSLRLSCAASGNIISFNPMGWHRQAPGKQRELVASITSGGSISYVDSVKGRFTISRDSAKNTIYLQMNSLKPEDTAVYFCAGEGPRRRGSTWYTDTYWGQGTQVTVSS
notes: yeast-produced
Regarding B4, in assay [2], the binding result is listed as “no binding (tested: 10 µg/ml)”.

B5: IV133 (VHH)
VHH: QVQLQQSGGGLVQPGGSLRLSCAASSSGFSFNPMGWYRQAPGKQRELVATMTSGGTTNYADSVKGRFTISRDNAKTTVYLQMNSLKPEDTAVYYCNARGPRRATTGWITDDYWGQGTQVTVSS
notes: yeast-produced
Consider B5, for which, in assay [2], the binding result is given as “no binding (tested: 10 µg/ml)”.

B6: IV157 (VHH)
VHH: QVQLQQSGGGLVQPGGSLRLSCAASRSDISFNPMGWYRQAPGKQRELVATISNGGTTNYADSVKGRFTISQDNAKTTVYLQMNSLKPEDTAVYYCNGRGPRYATTGWYTDDYWGQGTQVTVSS
notes: yeast-produced
As for B6, the binding result in assay [2] is given as “no binding (tested: 10 µg/ml)”.

B7: IV156 (VHH)
VHH: QVQLQQSGGGLVQPGGSLRLSCAASRSGFSFNPMGWYRQAPGKQRELVATITSGGTTNYADSVKGRFTISTDNAKTTVFLQMNSLKPEDTAVYYCNGRGPRRGTAGWFTDDYWGQGTQVTVSS
notes: yeast-produced
In the case of B7, the binding result in [2] is given as “no binding (tested: 10 µg/ml)”.

B8: 1E4 (VHH)
VHH: EVQLVESGGGLVQAGGSLRLSCEASGRTFSSYGMGWFRQAPGKEREFVAAVSRLSGPRTVYADSVKGRFTISRDNAENTVYLQMNSLKPEDTAVYTCAAELTNRNPGAYYYTWAYDYWGQGTQVTVSS
Regarding B8, the “RSV neutralization IC50 (nM) (n = 2), Long” value in assay [3] turned out to be 380 nM. Also, the “RSV neutralization IC50 (nM) (n = 2), A-2” value in [4] came out at 298 nM.

B9: PMP7B2 (VHH)
VHH: EVQLVESGGGLVQAGDSLRLSCAASGRTFSSYAMGWFRQAPGKEREFVAAISWSDGSTYYADSVKGRFTISRDNAKNTVYLQMNSLKPEDTAVYYCAADLTSTNPGSYIYIWAYDYWGQGTQVTVSS
As to B9, the “Binding RSV-A, Fold blanc” value in assay [1] is 4.7 fold over blank.

B10: PMP1A6 (VHH)
VHH: EVQLVESGGGLVQAGGSLRLSCAASGRTFSSYAMGWFRQAPGKEREFVAAIWWSGGSTYYADSVKGRFTMSRDNAKNTVYLEMNNLKPEDTAVYYCAADTDSSNSGSYLYTWAYDYWGQGTQVTVSS
As for B10, the “Binding RSV-A, Fold blanc” value in assay [1] amounted to 4.2 fold over blank.

B11: PMP1A2 (VHH)
VHH: EVQLVESGGGLVQAGGSLRLSCAASERTFSYYAMGWFRQAPGKEREFVATISRSGEWIYYKDAMKGRFTISRDNANNAVYLQMNSLQPEDTAIYYCAADSLGGFRSASDYYNTNTYAYWGQGTQVTVSS
For the molecule B11, in [5], the “% Inhibition 101F Fab (1:100 PE)” value stood at 82%. For the same molecule, the “% Inhibition 101F Fab (1:300 PE)” value in assay [6] was 27%. Further, in assay [7], the “% Inhibition 101F Fab (1:1000 PE)” value was 5%. Further, the “Binding RSV-A, Fold blanc” value in assay [8] was found to be 4 fold over blank.

B12: PMP1B2 (VHH)
VHH: EVQLVESGGGLVQAGGSLRLSCAASGPTFSADTMGWFRQAPGKEREFVATIPWSGGIAYYSDSVKGRFTMSRDNAKNTVDLQMNSLKPEDTALYYCAGSSRIYIYSDSLSERSYDYWGQGTQVTVSS
With B12, the “% Inhibition 101F Fab (1:100 PE)” value in assay [5] came to 82%. The “% Inhibition 101F Fab (1:300 PE)” value in assay [6] was found to be 58%. Also, the “% Inhibition 101F Fab (1:1000 PE)” value in assay [7] amounted to 25%. Further, the “Binding RSV-A, Fold blanc” value in assay [8] came out at 3.8 fold over blank.

B13: PMP13D1 (VHH)
VHH: EVQLVESGGGLVQPGGSLRLSCATSGFTEDYYVIGWFRQAPGKEREGVSCMSSSGDSTTYADSVKGRFTISRDNAKNMVYLQMTSLKPEDTAVYYCAADFALGCYSGSYYPRYDYWGQGTQVTVSS
On to B13, for which, in assay [5], the “% Inhibition 101F Fab (1:100 PE)” value came to 78%. Besides, the “% Inhibition 101F Fab (1:300 PE)” value in [6] came to 52%. In addition, the “% Inhibition 101F Fab (1:1000 PE)” value in [7] turned out to be 16%. The “Binding RSV-A, Fold blanc” value in [8] came out at 3.1 fold over blank.

B14: PMP1G8 (VHH)
VHH: EVQLVESGGGSVQAGGSLRLSCAASGGSFNRFGMGWFRRAPGKERDFVAAINLSGDTTYYVDSVQGRFTISRDNANNIMYLQMNLLKPEDTADYYCAADPDPITAWKQSGAGMDYWGKGTQVTVSS
Turning to B14, the “Binding RSV-A, Fold blanc” value in assay [1] came to 3.7 fold over blank.

B15: IV25 (VHH)
VHH: QVQLQQSGGGLVQSGGSLSLSCAASGITLNNRVVGWFRQAPGKEREFVGRIMWSVGDTFYARSVKGRFTISRDNAKNTMYLQMNALKPEDTAVYYCAAARDPDLYTGQYEYWGQGTQVTVSS
notes: yeast-produced
As to B15, in [2], the binding result is on record as “no binding (tested: 10 µg/ml)”.

B16: PMP13E12 (VHH)
VHH: EVQLVESGGGLVQAGGSLRLSCAASGRTFSRYIMGWFRQAPGKEREFVGAISRSGDITSFADFVKGRFTMSRDNAKNTLYLQMNSLEPEDTAVYSCAANSDTYYIYSDIVVPERYDYWGQGTQVTVSS
With B16, in [5], the “% Inhibition 101F Fab (1:100 PE)” value worked out at 74%. Besides, the “% Inhibition 101F Fab (1:300 PE)” value in [6] was 28%. Also, the “% Inhibition 101F Fab (1:1000 PE)” value in assay [7] turned out to be 8%. Moreover, in [8], the “Binding RSV-A, Fold blanc” value came out at 3.7 fold over blank.

B17: PMP19C4 (VHH)
VHH: EVQLVESGGGLVQAGGSLRLSCAASGRSFSNYVLGWFRQAPGKEREFVAAISFRGDSAIGAPSVEGRFTISRDNAKNTGYLQMNSLVPDDTAVYYCGAGTPLNPGAYIYDWSYDYWGRGTQVTVSS
B17: the “Binding RSV-A, Fold blanc” value in [1] came out at 2.5 fold over blank.

B18: PMP20C1 (VHH)
VHH: EVQLVESGGGLVQAGGSLRLSCAASGRTFSSFAMGWFRQAPGKEREFVAAISWSGGSTYYADSVKGRFTISGDNAKNTMYLQMNSLKPEDTAVYYCAADSEILNSGAYYYPWAYVYWGQGTQVTVSS
For the molecule B18, the “Binding RSV-A, Fold blanc” value in [1] was found to be 2.7 fold over blank.

B19: NC41v06 (VHH)
VHH: EVQLLESGGGLVQPGGSLRLSCAASGGSLSNYVLGWFRQAPGKGREFVAAINWRDDITIGPPNVEGRFTISRDNAKNTLYLQMNSLRPEDTAVYYCGAGTPLNPGAYIYDWSYDYWGQGTLVTVSS
For B19, in assay [9], the Kd (commonly the free concentration of one partner at which half of the binding sites on the other are occupied at equilibrium, for simple one-to-one binding) was 2.5 nM; the koff (in general, a measure of how fast the partners let go of each other) stood at 0.0048 s⁻¹; the kon – broadly, the rate constant with which the complex forms – stood at 2e+06 M⁻¹ s⁻¹.

B20: NC41 (VHH)
VHH: EVQLVESGGGLVQAGGSLSISCAASGGSLSNYVLGWFRQAPGKEREFVAAINWRGDITIGPPNVEGRFTISRDNAKNTGYLQMNSLAPDDTAVYYCGAGTPLNPGAYIYDWSYDYWGRGTQVTVSS
As to B20, in assay [9], binding was put at a Kd of 4 nM, the koff was 0.0067 s⁻¹ and the kon turned out to be 1.7e+06 M⁻¹ s⁻¹.

B21: NC41v17 (VHH)
VHH: EVQLLESGGGLVQPGGSLRLSCAASGGSLSNYVLGWFRQAPGKGREFVAAINWRGDITIGPPNVEGRFTISRDNSKNTLYLQMNSLRPEDTAVYYCGAGTPLNPGAYIYDWSYDYWGQGTLVTVSS
In [9], B21 yielded a Kd of 3.2 nM, a koff of 0.0059 s⁻¹ and a kon of 1.9e+06 M⁻¹ s⁻¹.

B22: IV131 (VHH)
VHH: QVQLQQSGGGLVQAGGSLRLSCAASGSGFSFNPMGWYRQAPGKQRELVASITSGGTTNYVDSVKGRFTISRGNAKNTVYLQMNSLKPEDTAVYYCAAEGPRRRGSTWYTDNYWGQGTQVTVSS
notes: yeast-produced
Regarding B22, in assay [2], the binding result is listed as “no binding (tested: 10 µg/ml)”.
